Laboratory results published in PMC6546911 (Nature Communications, 2019).

Biological target: T1, Fen1, budding yeast, wild-type (budding yeast, UniProt P26793 1-382)
T1 construct: Fen1 (flap endonuclease), budding yeast; source: purified
T1 sequence (looked up): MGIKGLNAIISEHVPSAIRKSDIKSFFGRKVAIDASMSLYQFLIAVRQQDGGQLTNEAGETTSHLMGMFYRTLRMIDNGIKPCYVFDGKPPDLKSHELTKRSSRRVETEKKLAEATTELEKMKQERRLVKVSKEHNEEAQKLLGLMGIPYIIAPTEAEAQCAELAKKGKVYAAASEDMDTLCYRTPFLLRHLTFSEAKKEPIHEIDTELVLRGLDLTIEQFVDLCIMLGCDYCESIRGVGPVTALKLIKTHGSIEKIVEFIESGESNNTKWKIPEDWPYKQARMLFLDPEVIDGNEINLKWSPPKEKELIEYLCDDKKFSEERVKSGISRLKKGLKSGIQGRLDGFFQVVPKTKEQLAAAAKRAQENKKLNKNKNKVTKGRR
Assay: pull-down; purified wild-type or mutant Fen1 mixed with PCNA; Fen1 affinity-purified on anti-FLAG beads; co-isolated PCNA by immunoblot
Conditions: both partners purified

B1: Yeast PCNA (Pol30p) (natural protein, budding yeast, UniProt P15873 1-258, looked up)
chain: MLEAKFEEASLFKRIIDGFKDCVQLVNFQCKEDGIIAQAVDDSRVLLVSLEIGVEAFQEYRCDHPVTLGMDLTSLSKILRCGNNTDTLTLIADNTPDSIILLFEDTKKDRIAEYSLKLMDIDADFLKIEELQYDSTLSLPSSEFSKIVRDLSQLSDSINIMITKETIKFVADGDIGSGSVIIKPFVDMEHPETSIKLEMDQPVDLTFGAKYLLDIIKGSSLSDRVGIRLSSEAPALFQFDLKSGFLQFFLAPKFNDEE
notes: PCNA (Pol30p), budding yeast; source: E. coli BL21 (DE3), purified
  binding result: binds
